# Columns and labels:
# [1] = system: AGPPase (soluble and particulate isoforms); test: AGPPase enzymatic assay (two-step spectrophotometric determination of G1P produced from ADPG); format: biochemical, barley (Hordeum vulgare), tomato (Lycopersicon sculentum)
# [2] = Stability of AGPPase to pH and temperature; format: physicochemical; details: 65° C. for 30 minutes
Molecule,Resistance of AGPPase to ionic detergents and proteases [1],Heat resistance of soluble AGPPase [2]
"K proteinase: protease (Boehringer) (protein, UniProt P06873 106-384, looked up) Proteinase K: AAQTNAPWGLARISSTSPGTSTYYYDESAGQGSCVYVIDTGIEASHPEFEGRAQMVKTYYYSSRDGNGHGTHCAGTVGSRTYGVAKKTQLFGVKVLDDNGSGQYSTIIAGMDFVASDKNNRNCPKGVVASLSLGGGYSSSVNSAAARLQSSGVMVAVAAGNNNADARNYSPASEPSVCTVGASDRYDRRSSFSNYGSVLDIFGPGTSILSTWIGGSTRSISGTSMATPHVAGLAAYLMTLGKTTAASACRYIADTANKGDLSNIPFGTVNLLAYNNYQA",resistant,–
"Soluble AGPPase: soluble isoform of AGPPase purified from barley leaves, a germin-like glycoprotein (protein, Hordeum vulgare cv. Scarlett; Soluble AGPPase deduced from cDNA, soluble isoform of AGPPase purified from barley leaves, a germin-like glycoprotein) MANAMLLPVLVSFLVLPFSAMALTQDFCVADLSCSDTPAGYPCKTGVGAGDFYYHGLAAAGNTSNLIKAAVTPAFVGQFPGVNGLGISAARLDIAVGGVVPMHTHPAASELLFVTEGTILAGFISSSSNTVYTKTLYKGDIMVFPQGLLHYQYNGGSSSAVALVAFSGPNPGLQITDYALFANNLPSAVVEKVTFLDDAQVKKLKSVLGGSG",–,resistant

# Reference: patent publication US7205150B2, “Transgenic plants over-expressing plant ADP-glucose pyrophosphatase” (Universidad Publica de Navarra, priority 2000, dated 2007)
